Reference: the RNAGym collection of RNA variant scans (doi:10.7554/elife.80360)

B1: Hairpin Ribozyme (parent)
chain: GUCCUCUUUCACGUGCGCGUGAAAGAGAGAAGUGAACCAGAGAAACACACGUUGUGGUAUAUUACCUGGUA

Variants of: B1
Experiment: self-cleavage, relative activity (ratio to wild type); higher = more cleavage; co-transcriptional

Point of comparison: GUCCUCUGUCACGUGCGCGUGAAAGAGAGAAGUGAACCAGAGAAACACACGUUGUGGUAUAUUAACUGGUA [U8G C65A], self-cleavage 0.97. Against it:
- GUCCUCUGUCACGUGCGCGUGAAAGAGAGAAGUGAACCAGAGAAACUCACGUUGUGGUAUAUUACCUGGUA [U8G A47U] — lower, 0.168
- GUCCUCUGUCACGUGCGCGUGAAAGAGAGAAGUGAACCAGAGAAACACACGUUGUGGUAUAUUACUUGGUA [U8G C66U] — lower, 0.412
- GUCCUCUGUCACGUGCGAGUGAAAGAGAGAAGUGAACCAGAGAAACACACGUUGUGGUAUAUUACCUGGUA [U8G C18A] — lower, 0.72
- GUCCUCUGUCACGUGCGUGUGAAAGAGAGAAGUGAACCAGAGAAACACACGUUGUGGUAUAUUACCUGGUA [U8G C18U] — lower, 0.678
- GUCCUCUGUCACGUGUGCGUGAAAGAGAGAAGUGAACCAGAGAAACACACGUUGUGGUAUAUUACCUGGUA [U8G C16U] — lower, 0.916
- GUCCUCUGUCACGUGGGCGUGAAAGAGAGAAGUGAACCAGAGAAACACACGUUGUGGUAUAUUACCUGGUA [U8G C16G] — lower, 0.395
- GUCCUCUGUCACGUGAGCGUGAAAGAGAGAAGUGAACCAGAGAAACACACGUUGUGGUAUAUUACCUGGUA [U8G C16A] — lower, 0.648
- GUCCUCUGUCACGUGCGCGUGAAAGAGAGAAGUGAACCAGAAAAACACACGUUGUGGUAUAUUACCUGGUA [U8G G42A] — lower, 0.156
- GUCCUCUGUGACGUGCGCGUGAAAGAGAGAAGUGAACCAGAGAAACACACGUUGUGGUAUAUUACCUGGUA [U8G C10G] — lower, 0.676
- GUCCUCUGUCACGUGCGCGUAAAAGAGAGAAGUGAACCAGAGAAACACACGUUGUGGUAUAUUACCUGGUA [U8G G21A] — lower, 0.693
- GUCCUCUGUCACGUGCGCGUCAAAGAGAGAAGUGAACCAGAGAAACACACGUUGUGGUAUAUUACCUGGUA [U8G G21C] — lower, 0.401
- GUCCUCUGUCACGUGCGCGUGGAAGAGAGAAGUGAACCAGAGAAACACACGUUGUGGUAUAUUACCUGGUA [U8G A22G] — lower, 0.676
- GUCCUCUGUCACGUGCGCGUGAAAGAGAGAAGUGAACCAGAGAAACACGCGUUGUGGUAUAUUACCUGGUA [U8G A49G] — lower, 0.264
- GUCCUCUGUCACGUGCGCGUGAAAGAGAGAAGUGAACCAGAGAAACACUCGUUGUGGUAUAUUACCUGGUA [U8G A49U] — lower, 0.164
- GUCCUCUCUCACGUGCGCGUGAAAGAGAGAAGUGAACCAGAGAAACACACGUUGUGAUAUAUUACCUGGUA [U8C G57A] — lower, 0.119
- GUCCUCUGUCACGUGCGCGUGAAAGAGAGAAGUGGACCAGAGAAACACACGUUGUGGUAUAUUACCUGGUA [U8G A35G] — lower, 0.667
- GUCCUCUGUCACGUGCGCGAGAAAGAGAGAAGUGAACCAGAGAAACACACGUUGUGGUAUAUUACCUGGUA [U8G U20A] — lower, 0.353
- GUCCUCUGUCACGUGCGCGGGAAAGAGAGAAGUGAACCAGAGAAACACACGUUGUGGUAUAUUACCUGGUA [U8G U20G] — lower, 0.614
- GUCCUCUGUCACGUGCGCGUGAAAGAGAGAGGUGAACCAGAGAAACACACGUUGUGGUAUAUUACCUGGUA [U8G A31G] — lower, 0.47
- GUCCUCUGUCACGUGCGCGUGAAAGAGAGAUGUGAACCAGAGAAACACACGUUGUGGUAUAUUACCUGGUA [U8G A31U] — lower, 0.112
- GUCCUCUGUCACGUGCGCGUGACAGAGAGAAGUGAACCAGAGAAACACACGUUGUGGUAUAUUACCUGGUA [U8G A23C] — higher, 1.21
- GUCCUCUGUCACGUGCGCGUGAAAGAGAGAAGUGAACCAGAGAAACACACGUUGUGGUAUGUUACCUGGUA [U8G A61G] — lower, 0.0213
- GUCCUCUGUCACGUGCGCGUGAAAGAGAGAAGUGAACCAGAGAAAAACACGUUGUGGUAUAUUACCUGGUA [U8G C46A] — lower, 0.134
- GUCCUCUGUCACGUGCGCGUGAAAGAGAGAAGUGAACCAGAGAAAUACACGUUGUGGUAUAUUACCUGGUA [U8G C46U] — lower, 0.195
- GUCCUCUGUCACGUGCGCGUGAAAGAGAGAAGUGAACCAGAGAAAGACACGUUGUGGUAUAUUACCUGGUA [U8G C46G] — lower, 0.128
- GUCCUCUGUCACGUGCGCGUGAAGGAGAGAAGUGAACCAGAGAAACACACGUUGUGGUAUAUUACCUGGUA [U8G A24G] — lower, 0.632
- GUCCUCUGUCACGUGCGCGUGAAAGAGAGAAGUGAACCAGAGAAACACAUGUUGUGGUAUAUUACCUGGUA [U8G C50U] — lower, 0.327
- GUCCUCUGUCACGUGCGCGUGAAAGAGGGAAGUGAACCAGAGAAACACACGUUGUGGUAUAUUACCUGGUA [U8G A28G] — lower, 0.843
- GUCCUCUGUCACGUGCGCGUGAAAGAGAGAAGUGACCCAGAGAAACACACGUUGUGGUAUAUUACCUGGUA [U8G A36C] — lower, 0.5
- GUCCUCUGUCACGUGCGCCUGAAAGAGAGAAGUGAACCAGAGAAACACACGUUGUGGUAUAUUACCUGGUA [U8G G19C] — lower, 0.36
- GUCCUCUCUCACGUGCGCGUGAAAGAGAGAAGUGAACCAGAGAAACACACGUUGUGGUAUAUUACCUGAUA [U8C G69A] — lower, 0.327
- GUCCUCUCUCACGUGCGCGUGAAAGAGAGAAGUGAACCAGAGAAACACACGUUGUGGUAUAUUACCUGUUA [U8C G69U] — lower, 0.186
- GUCCUCUCUCACGUGCGCGUGAAAGAGAGAAGUGAACCAGAGAAACACACGUCGUGGUAUAUUACCUGGUA [U8C U53C] — lower, 0.766
- GUCCUCUGUCACGUGCGCGUGAAAGAGAGAAGUGAACCAGAGAAACACACGUUUUGGUAUAUUACCUGGUA [U8G G54U] — lower, 0.37
- GUCCUCUGUCACGUGCGCGUGAAAGAGAGAAGUGAACCAGAGAAACACACGUUGUGGUGUAUUACCUGGUA [U8G A59G] — lower, 0.121
- GUCCUCUGUCACGUGCGCGUGAAAGAGAGAAGUGAACCAGAGAAACACACGUUGUGGUUUAUUACCUGGUA [U8G A59U] — lower, 0.188
- GUCCUCUGUCACGUGCGCGUGAAAGAGAGAAGUGAACCAGAGAAACACACAUUGUGGUAUAUUACCUGGUA [U8G G51A] — lower, 0.739
- GUCCUCUGUCACGUGCGCGUGAAAGAGAGAAGUGAACCAGAGAAACACACGUUGUGGUAUAAUACCUGGUA [U8G U62A] — lower, 0.0946
- GUCCUCUGUCACGUGCGCGUGAAAGAGAGAAGUGAACCAGAGAAGCACACGUUGUGGUAUAUUACCUGGUA [U8G A45G] — lower, 0.125
- GUCCUCUGUCACGUGCGCGUGAAAGAGAGAAGUGAACCAGAGAAACACACGUUGAGGUAUAUUACCUGGUA [U8G U55A] — lower, 0.193
- GUCCUCUGUCACGUGCGCGUGAAAGAGAGAAGUGAACCAGAGAAACACACGUUGCGGUAUAUUACCUGGUA [U8G U55C] — lower, 0.232
- GUCCUCUCUCACGUGCGCGUGAAAGAGAGAAGUGAACCAGAGAAACACACGUUGAGGUAUAUUACCUGGUA [U8C U55A] — lower, 0.16
- GUCCUCUGUCACGUGCGCGUGAAAGAGAGAAGUGAACUAGAGAAACACACGUUGUGGUAUAUUACCUGGUA [U8G C38U] — lower, 0.548
- GUCCUCUGUCACGUGCGCGUGAAAGAGAGAAGUGAACAAGAGAAACACACGUUGUGGUAUAUUACCUGGUA [U8G C38A] — lower, 0.165
- GUCCUCUGUCACGUGCGCGUGAAAAAGAGAAGUGAACCAGAGAAACACACGUUGUGGUAUAUUACCUGGUA [U8G G25A] — lower, 0.21
- GUCCUCUGUCACGUGCGCGUGAAAGAGAGAAGUGAACCAGAGAAACACACGUGGUGGUAUAUUACCUGGUA [U8G U53G] — lower, 0.705
- GUCCUCUCUCACGUGCGCGUGAAAGAGAGAAGUGAACCAGAGAAACACACGUUGUGGUAUAUUACCUCGUA [U8C G68C] — lower, 0.238
- GUCCUCUGUCACGUGCGCGUGAAAGAGAGAAGUGAACCAGAGGAACACACGUUGUGGUAUAUUACCUGGUA [U8G A43G] — lower, 0.132
- GUCCUCUGUCACGUGCGCGUGAAAGAGACAAGUGAACCAGAGAAACACACGUUGUGGUAUAUUACCUGGUA [U8G G29C] — lower, 0.141
- GUCCUCUGUCACGUGCGCGUGAAAGAGAGAAGUGAACCAGGGAAACACACGUUGUGGUAUAUUACCUGGUA [U8G A41G] — lower, 0.673
- GUCCUCUGUCACGUGCGCGUGAAAGAGAGAAGUGAACCAGUGAAACACACGUUGUGGUAUAUUACCUGGUA [U8G A41U] — higher, 1.07
- GUCCUCUGUCACGUGCGCGUGAAAGCGAGAAGUGAACCAGAGAAACACACGUUGUGGUAUAUUACCUGGUA [U8G A26C] — lower, 0.25
- GUCCUCUGUCACGUGCGCGUGAAAGUGAGAAGUGAACCAGAGAAACACACGUUGUGGUAUAUUACCUGGUA [U8G A26U] — lower, 0.281
- GUCCUCUGUCACGUGCGCGUGAAAGAGAGAAGUGAACCAAAGAAACACACGUUGUGGUAUAUUACCUGGUA [U8G G40A] — lower, 0.264
- GUCCUCUGUCACGUGCGCGUGAAAGAGAGAAGUGAACCACAGAAACACACGUUGUGGUAUAUUACCUGGUA [U8G G40C] — lower, 0.111
- GUCCUCUCUCACGUGCGCGUGAAAGAGAGAAGUGAACCAGAGAAACACACGAUGUGGUAUAUUACCUGGUA [U8C U52A] — lower, 0.676
- GUCCUCUGUCACGUGCCCGUGAAAGAGAGAAGUGAACCAGAGAAACACACGUUGUGGUAUAUUACCUGGUA [U8G G17C] — lower, 0.23
- GUCCUCUGUCACGUGCGCGUGAAAGAGAGAAGUGAACCAGAGAAACACACGUUGUGGUAUAUUAUCUGGUA [U8G C65U] — lower, 0.363
- GUCCUCUCUCACGUGCGCGUGAAAGAGAGAAGUGAACCAGAGAAACACACGUUGUGGUAUAUAACCUGGUA [U8C U63A] — lower, 0.0901
- GUCCUCUGUCACGUACGCGUGAAAGAGAGAAGUGAACCAGAGAAACACACGUUGUGGUAUAUUACCUGGUA [U8G G15A] — lower, 0.897
- GUCCUCUGUCACGUCCGCGUGAAAGAGAGAAGUGAACCAGAGAAACACACGUUGUGGUAUAUUACCUGGUA [U8G G15C] — lower, 0.639
- GUCCUCUGUCACGUGCGCGUGAAAGAGAGAAGUGAACCAGAGACACACACGUUGUGGUAUAUUACCUGGUA [U8G A44C] — lower, 0.139
- GUCCUCUGUCACGUGCGCGUGAAAGAGAGAAGUGAACCAGAGAUACACACGUUGUGGUAUAUUACCUGGUA [U8G A44U] — lower, 0.184
- GUCCUCUGUCACGUGCGCGUGAAAGAGAGAAGUGAACCAGAGAGACACACGUUGUGGUAUAUUACCUGGUA [U8G A44G] — lower, 0.148
- GUCCUCUGUCACGUGCGCGUGAAAGAGAGAAGUAAACCAGAGAAACACACGUUGUGGUAUAUUACCUGGUA [U8G G34A] — lower, 0.767
- GUCCUCUGUCACGUGCGCGUGAAAGAGAGAAGUCAACCAGAGAAACACACGUUGUGGUAUAUUACCUGGUA [U8G G34C] — higher, 1.19
- GUCCUCUGUCACGUGCGCGUGAAAGAGAGAAGUGAACCAGAGAAACACACGUUGUGGUAUAUUUCCUGGUA [U8G A64U] — lower, 0.146
- GUCCUCUGUCACGUGCGCGUGAAAGAGAGAAGUGAACCAGAGAAACACACGUUGUGGUAUAUUCCCUGGUA [U8G A64C] — lower, 0.0997
- GUCCUCUCUCACGUGCGCGUGAAAGAGAGAAGUGAACCAGAGAAACACACGUUGUGGUAAAUUACCUGGUA [U8C U60A] — lower, 0.554
- GUCCUCUCUCACGUGCGCGUGAAAGAGAGAAGUGAACCAGAGAAACACACGUUGUGGUAGAUUACCUGGUA [U8C U60G] — lower, 0.489
- GUCCUCUCUCACGUGCGCGUGAAAGAGAGAAGUGAACCAGAGAAACACACGUUGUGGUACAUUACCUGGUA [U8C U60C] — higher, 1.23
- GUCCUCUCUCACGUGCGCGUGAAAGAGAGAAGUGAACCAGAGAAACACACGUUGUGGUAUAUUACCGGGUA [U8C U67G] — lower, 0.226
- GUCCUCUCUCACGUGCGCGUGAAAGAGAGAAGUGAACCAGAGAAACACACGUUGUGGUAUAUUACCCGGUA [U8C U67C] — lower, 0.159
- GUCCUCUCACACGUGCGCGUGAAAGAGAGAAGUGAACCAGAGAAACACACGUUGUGGUAUAUUACCUGGUA [U8C U9A] — lower, 0.266
- GUCCUCUCCCACGUGCGCGUGAAAGAGAGAAGUGAACCAGAGAAACACACGUUGUGGUAUAUUACCUGGUA [U8C U9C] — lower, 0.275
